Consider three molecules from US8796209B2, “Compositions and methods related to anti-FGF agents” (The Regents of the University of California, priority 2005, dated 2014).

The target of one experiment is T1, integrin αvβ3 (Homo sapiens, UniProt P05106+P06756).
T1 construct: using the soluble αv and β3 expression constructs provided by Tim Springer; made in house; host or cells: CHO K1
Nature of the experiment: Soluble integrin binding assay (ELISA-type), soluble αvβ3 on immobilized FGF. To be noted: coated at 10 μg/ml; soluble αvβ3 5 μg/ml, 1 mM MnCl2. As to the method: Wells of 96-well microtiter plates were coated with 10 μg/ml FGF-1 or FGF-2 and remaining protein binding sites were blocked with 1 mg/ml BSA. Recombinant soluble αvβ3 (50 μl/well at 5 μg/ml in Hepes-Tyrode buffer supplemented with 1 mM MnCl2) was added to wells and incubated for 1 h at room temperature. Soluble αvβ3 was incubated with 10 μg/ml 7E3 (white bar) or mouse IgG (black bar) for 10 min on ice prior to adding to the wells. BSA (circle) was used as a negative control. Data is shown as means+/−SD of triplicate experiments.
FGF-1 (10 μg/m) was heat-treated at indicated temperature for 10 min prior to immobilization. Binding of soluble αvβ3 was determined as described in FIG. 1. Data is shown as percent binding+/−SD of triplicate experiments.
Amino acid residues in the integrin-binding site or in the FGFR-binding site were mutated individually or in groups. Wild-type (diamond), R50E (open square), N33A (closed square), 4xE (circle), 3xA (triangle) were coated to a plastic plate various concentration as indicated and the binding of soluble αvβ3 was determined as described in FIG. 2. BSA (cross) was used as a negative control. […] “4xE” represents the K127E/K128E/K133E/R134E mutant. “3xA” represents the E102A/Y109A/Q110A mutant.
Binding assays were performed as previously described (Takagi et al., 2001). Native or heat-denatured FGF-1 in 0.1 M carbonate buffer, pH 9.4, were incubated in a polystyrene 96-well non-tissue culture plates surface overnight at 4° C. Unbound FGF-1 was removed, and 200 μl of 0.1% bovine serum albumin in PBS was added and incubated for 60 min at room temperature. The wells were washed with PBS and soluble integrin αvβ3 in 50 μl in Hepes-Tyrode buffer supplemented with 1 mM Mn^2+ were added to the wells and incubated at room temperature for 60 min. After non-bound soluble integrin were removed by rinsing the wells with the same buffer. Horseradish peroxidase (HRP) conjugated anti His-tag mouse IgG was added to well and incubated 60 min. Non-bound antibodies were removed by rinsing the wells with the same buffer, bound integrins were quantified by measuring the absorbance of 450 nm developed from adding the substrate (3,3′,5,5′-tetramethylbenzidine) of HRP unbound protein was aspirated, and the wells were washed with PBS three times.

The next experiment has as its system ERK1/2. Nature of the experiment: MAP kinase (ERK1/2) activation, western blot. It counts as cell-based, mouse. The note with it: 5 μg/ml heparin. As for the experimental part: Serum starved Balb3T3 cells were stimulated with wild-type and mutant FGF-1s (5 ng/ml) in the presence or absence of 5 μg/ml heparin for 10 min at 37° C. Cell lysates were analyzed by western blotting with anti-phospho ERK1/2 (anti phospho-ERK). Total amount of ERK1/2 in each lane was determined by blotting with anti-ERK1/2. Controls contain medium alone (none) or medium containing 10% fetal calf serum (FCS).
Balb3T3 cells were grown to confluence and serum starved in DMEM supplemented with 0.4% fetal calf serum for 24 h, and stimulated with wild type and mutant FGF-1 (5 ng/ml) in the presence or absence of 5 μg/ml heparin for 10 min at 37° C. Cells were washed twice with ice-cold PBS and lysed with the lysis buffer (20 mM Tris-HCI pH 8.0, 120 mM NaCl, 5 mM EDTA, 0.5% Triton-X100, 1 mM PMSF, 1 mM DTT, 10 mM NaF, 1 mM Na3VO4, 10 μg/ml aprotinin). Cell lysates were separated on 4-12% NuPAGE Bis-Tris Gel (invitrogen). Proteins were then transferred to PVDF membranes (Milli-pore), probed with antibodies, and bound antibodies were detected by HRP-conjugated anti-mouse IgG and chemiluminescence HRP substrate (Pierce). The antibodies used were anti-phospho-ERK1/2, anti-ERK1/2 (Cell Signaling Technology).
(In general: In western blotting, separated proteins are transferred to a membrane and probed.)

Another experiment has as its target T2, FGF-1-αvβ3 interaction (Homo sapiens, UniProt P05106+P06756).
T2 construct: using the soluble αv and β3 expression constructs provided by Tim Springer; made in house; host or cells: CHO K1 (integrin); E. coli BL21 (DE3) (FGF-1)
Nature of the experiment: Inhibition of FGF-1-αvβ3 interaction by γC. It is filed as binding. The note with it: immobilized FGF-1 10 μg/ml, increasing concentrations of soluble γC. As for the experimental part: FGF-1 (10 μg/m) was immobilized to the plastic plate. Soluble αvβ3 was added to the wells together with increasing concentrations of soluble γC. Binding was determined as described in A. Data is shown as percent binding+/−SD of triplicate experiments with no addition of γC as 100.
FGF-1 (10 μg/ml) was immobilized to wells of 96-well plates. Soluble αvβ3 integrin was added to the wells with various concentration of γC. Bound integrin was detected by using HRP-conjugated anti-6His antibodies and its substrate as described above.

T2 sequence (P06756 31-992 limits assumed): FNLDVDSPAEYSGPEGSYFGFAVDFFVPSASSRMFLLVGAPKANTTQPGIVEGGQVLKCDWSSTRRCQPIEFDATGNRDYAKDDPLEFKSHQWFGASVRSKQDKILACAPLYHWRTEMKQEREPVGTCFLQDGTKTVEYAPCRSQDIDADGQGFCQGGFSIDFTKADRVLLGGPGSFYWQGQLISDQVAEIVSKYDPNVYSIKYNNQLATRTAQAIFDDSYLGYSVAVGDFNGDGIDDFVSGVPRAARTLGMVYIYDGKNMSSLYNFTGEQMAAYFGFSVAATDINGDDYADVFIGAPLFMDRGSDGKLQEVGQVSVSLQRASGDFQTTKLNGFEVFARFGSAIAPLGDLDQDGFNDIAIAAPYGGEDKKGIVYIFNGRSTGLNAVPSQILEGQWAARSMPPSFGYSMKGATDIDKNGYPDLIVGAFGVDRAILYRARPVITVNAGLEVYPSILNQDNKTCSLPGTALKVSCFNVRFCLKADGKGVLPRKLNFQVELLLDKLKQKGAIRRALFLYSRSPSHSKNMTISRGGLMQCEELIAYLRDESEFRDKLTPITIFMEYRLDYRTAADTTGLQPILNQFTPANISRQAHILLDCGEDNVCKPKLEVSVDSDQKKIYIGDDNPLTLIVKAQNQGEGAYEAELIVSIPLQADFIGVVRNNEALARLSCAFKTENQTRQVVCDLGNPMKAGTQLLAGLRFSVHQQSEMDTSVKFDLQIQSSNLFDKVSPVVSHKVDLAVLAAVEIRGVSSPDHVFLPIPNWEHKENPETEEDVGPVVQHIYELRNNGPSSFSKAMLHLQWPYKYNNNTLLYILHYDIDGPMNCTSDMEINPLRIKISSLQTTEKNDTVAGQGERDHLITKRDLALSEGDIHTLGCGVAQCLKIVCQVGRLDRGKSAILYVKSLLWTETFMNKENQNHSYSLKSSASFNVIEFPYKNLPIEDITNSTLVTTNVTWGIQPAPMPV
T2 sequence (P05106 27-718 limits assumed): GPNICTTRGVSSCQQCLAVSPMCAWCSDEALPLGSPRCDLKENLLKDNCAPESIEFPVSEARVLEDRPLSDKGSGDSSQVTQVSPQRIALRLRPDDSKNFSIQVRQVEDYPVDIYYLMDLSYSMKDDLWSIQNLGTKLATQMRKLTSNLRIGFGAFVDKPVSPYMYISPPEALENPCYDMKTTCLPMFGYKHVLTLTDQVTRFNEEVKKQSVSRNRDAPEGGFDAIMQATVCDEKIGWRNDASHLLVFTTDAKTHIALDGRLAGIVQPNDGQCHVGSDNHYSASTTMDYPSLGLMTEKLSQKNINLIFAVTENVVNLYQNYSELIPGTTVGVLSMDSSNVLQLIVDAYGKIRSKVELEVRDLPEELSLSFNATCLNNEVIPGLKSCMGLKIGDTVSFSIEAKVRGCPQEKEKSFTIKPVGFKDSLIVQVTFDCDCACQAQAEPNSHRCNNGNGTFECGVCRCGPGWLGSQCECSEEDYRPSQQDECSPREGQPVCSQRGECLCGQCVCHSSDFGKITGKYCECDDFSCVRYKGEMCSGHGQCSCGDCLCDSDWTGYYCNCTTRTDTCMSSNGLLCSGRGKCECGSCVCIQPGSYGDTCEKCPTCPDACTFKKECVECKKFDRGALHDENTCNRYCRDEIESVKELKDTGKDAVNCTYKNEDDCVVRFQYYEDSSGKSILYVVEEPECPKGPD
T1 sequence (P06756 31-992 limits assumed): as the sequence (P06756 31-992 limits assumed) above
T1 sequence (P05106 27-718 limits assumed): as the sequence (P05106 27-718 limits assumed) above

In the case of “FGF-2: basic FGF, used as a positive control for αvβ3 binding”, in the experiment with integrin αvβ3, the “binding of soluble αvβ3 to the immobilized protein” value is “bound”.

As for heparin [reference compound], the “effect of heparin on FGF-1-induced ERK1/2 activation” value in the experiment on ERK1/2 is listed as “did not enhance”.

B1: γC: globular carboxyl-terminal domain of the fibrinogen γ-chain, a known ligand for αvβ3 (protein)
chain: KDCQDIANKGAKQSGLYFIKPLKANQQFLVYCEIDGSGNGWTVFQKRLDGSVDFKKNWIQYKEGFGHLSPTGTTEFWLGNEKIHLISTQSAIPYALRVELEDWNGRTSTADYAMFKVGPEADKYRLTYAYFAGGDAGDAFDGFDFGDDPSDKFFTSHNGMQFSTWDNDNDKFEGNCAEQDGSGWWMNKCHAGHLNGVYYQGGTYSKASTPNGYDNGIIWATWKTRWYSMKKTTMKIIPFNRLTIGEGQQHHLGGAKQAGDV
As to B1, in the experiment with FGF-1-αvβ3 interaction, the “blocking of FGF-1-αvβ3 interaction” value is on record as “effectively block”.
